Source: PMC4163662

How the values were obtained:
[1] = biological target: GST-Shroom3 SD2 R1838A (mouse) (UniProt Q9QXN0); assay: pull-down; GST-Shroom3 SD2 variants bound to glutathione beads, His-tagged hRock1 SBD soluble; 2 hours at room temperature; washed with NETN; SDS-PAGE, Coomassie Blue
[2] = biological target: GST-Shroom3 SD2 R1838C (mouse) (UniProt Q9QXN0); assay: as above

Chain of UniProt Q9QXN0 (Q9QXN0 1562-1986, stated change not applied): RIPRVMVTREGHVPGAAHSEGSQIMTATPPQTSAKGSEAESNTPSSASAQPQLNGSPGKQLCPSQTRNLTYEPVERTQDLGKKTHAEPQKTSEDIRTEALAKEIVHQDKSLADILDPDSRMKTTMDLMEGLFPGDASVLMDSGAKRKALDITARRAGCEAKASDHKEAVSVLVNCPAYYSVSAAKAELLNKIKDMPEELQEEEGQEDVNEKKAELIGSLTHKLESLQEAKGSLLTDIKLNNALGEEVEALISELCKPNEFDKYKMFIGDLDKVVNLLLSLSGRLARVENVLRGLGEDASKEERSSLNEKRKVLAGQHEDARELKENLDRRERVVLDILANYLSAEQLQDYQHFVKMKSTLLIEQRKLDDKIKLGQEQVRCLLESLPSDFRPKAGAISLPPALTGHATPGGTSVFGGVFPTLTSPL

## His-tagged human Rock1 Shroom-Binding domain (SBD), amino acids 707-946 (from UniProt Q13464 707-946) (domain or fragment)
[1]
  percent reduction in binding relative to wild type: 45%
[2]
  percent reduction in binding relative to wild type: 95%
